Measurements as given in paper PMC5575768.

Biological target: filamentous actin from rabbit skeletal muscle (rabbit) (UniProt P68135)
Assay: differential scanning calorimetry

melt temperature of the Tm–actin interaction [°C]	melt temperature of the Tn–Tm–actin interaction (Tn with cTnT R92L) [°C]	Substance
47.9		α-tropomyosin D230N, with N-terminal ala-ser (natural protein)
47.2	47.3	α-tropomyosin, wild type, with N-terminal ala-ser (natural protein)
